Assay results taken from patent US20240317826A1 (ALBERT EINSTEIN COLLEGE OF MEDICINE, published 2024).

Target: T1, GST-CTD (C-terminal domain of HIV-1 integrase, aa 201-288, GST fusion) (HIV-1 (Hx3B), UniProt P04585 1348-1435)
T1 construct: domain: C-terminal (IN-CTD, aa 201-288 of integrase); also called IN-CTD; pGST-IN-CTD(aa 201-288); not shown: GST tag from pGEX3xPL vector
Assay: Alpha proximity competition, low salt: increasing INI1183-304 added to GST-CTD + biotinylated TAR RNA; displaced competitor is TAR RNA

B1: His6-SUMO-INI1183-304 (other)
chain: PEVLVPIRLDMEIDGQKLRDAFTWNMNEKLMTPEMFSEILCDDLDLNPLTFVPAIASAIRQQIESYPTDSILEDQSDQRVIIKLNIHVGNISLVDQFEWDMSEKENSPEKFALKLCSELGLG
notes: range 183-304; also called 6His-SUMO-INI1183-304; Rpt1 (cartoon label); not shown: His6-SUMO (h6-smt3) tag from pET28a-h6-smt3
In the case of B1, the IC50 is reported as ~5 nM.
